Data as given in patent publication US9872921B2, “DE-N-acetyl sialic acid antigens, antibodies thereto, and methods of use in cancer therapy” (priority 2004, dated 2018).

Columns and labels:
normal melanocytes = assay: Immunostaining of frozen sections of normal human skin; conditions: frozen unfixed sections, 400× magnification
Protocol: To determine whether there is a difference in expression of SEAM 3-reactive antigen between normal melanocytes and melanoma tumor cells, immuno-staining of thin sections of each type of tissue were performed. In addition to SEAM 3, controls included the secondary antibody alone and R24, which binds to the ganglioside GD3 that is expressed in normal melanocytes and is overexpressed in some melanomas (Dippold et al. Proc Natl Acad Sci USA, 1980. 77(10): 6114-8.; Graus, et al., Brain Res, 1984. 324(1): 190-4; Houghton et al. Proc Natl Acad Sci USA, 1985. 82(4):1242-6; Panneerselvam et al. J Immunol, 1986. 136(7): 2534-41; Real et al. Cancer Res, 1985. 45(9): 4401-11; Vadhan-Raj et al. J Clin Oncol, 1988. 6(10): 1636-48; Welt t al. Clin Immunol Immunopathol, 1987. 45(2): 214-29).
The tissue sections were made from frozen samples of normal skin (HuSkinTb111 in FIG. 39) and two human melanomas (HuMel1151 and HuMel4034). To prevent the possibility of blocking de-N-acetyl antigen or extracting a lipid containing the antigen, the sections were prepared from frozen tissue and were dried onto the slides but not fixed with aldehydes or organic solvents (Chammas et al. Cancer Res, 1999. 59(6): 1337-46). […] Bound antibody was then detected using the DAKO LSAB kit following the manufacturer's directions (Thermo Fisher Scientific, Waltham, Mass.). […]

SK-MEL-28 melanoma cells = assay: Fluorescence / confocal microscopy binding to cells; format: cell-based, human; conditions: without Triton
Protocol: (§1) After an overnight incubation cells were gently washed with PBS buffer and fixed with ice-cold 1% (v/v) formaldehyde. After 20 minutes cells were washed with PBS before blocking non-specific binding with a solution of 3% goat serum for 1 hour. To observe the presence of SEAM 3-reactive antigen that is present inside the cells, the cells were treated Triton X-100 0.5% w/v in 3% goat serum for 1 hour. The primary antibodies were added and incubated for 2 hours or overnight at 4° C. Cells were gently washed by a series (at least twice) with ice-cold PBS before isotype-specific secondary antibody (produced in goat) conjugated with either Alexa Fluor 488 (immunofluorescence and confocal), Alexa Fluor 546 (confocal) Alexa Fluor 594 (immunofluorescence), Alexa Fluor 633 (confocal) was applied for at least 1 hour at 4° C. in the dark (all secondary antibodies conjugated to fluorophores were obtained from Invitrogen, Carlsbad, Calif.). After another series of gentle washes, a hardening mounting medium containing DAPI was applied.
(§2) Confocal images were obtained using a Zeiss Meta510 CLSM at the Biological Imaging Facility, University of California, Berkeley, Calif. and were analyzed using ImageJ Software (NIH). Control antibodies and secondary antibodies applied alone were routinely used to assess background fluorescence.

[1] = test system: CHP-134 neuroblastoma cells; assay: as above; format: cell-based, human; conditions: without Triton
Protocol: as §1, §2

[2] = HPTLC / Western blot reactivity with chemically de-N-acylated GD3; format: binding; conditions: mAbs 5 μg/ml
Protocol: De-N-acyl GM3 and GD3 (Calbiochem) were prepared by suspending 1 mg of ganglioside in 2 ml of 2.5 M tetrabutylammonium hydroxide and 3 ml of butanol then heating the mixture to >100 degrees C. for 4 hours. After cooling the mixture to ambient temperature, the pH was adjusted to about 7 by adding 2 M HCl and the butanol removed by evaporation under a stream of N2. The remaining aqueous layer was dialyzed (1K cut-off dialysis tubing) against PBS buffer and used without further modification as an antigen for ELISA.
Lipids in the extract and in chemically de-N-acylated GD3 were analyzed by separation on high performance thin layer chromatography (HPTLC) and Western blot. Samples of the ganglioside extract, the ganglioside extract that had been treated with sodium borohydride (1 mg/100 μl at ambient temperature for 2 h) to remove the trichloroacetyl protecting group, and chemically de-N-acylated GD3 were spotted onto an aluminum-backed silica gel 60 HPTLC plate (Merck) and the plate developed in chloroform/methanol/0.02% CaCl2 (50:40:10). Plates used for Western blot were dried and dipped in a solution of 0.4% polyisobutylmethacrylate in hexame/chloroform (21:8) for 1 min. The plates were blocked with 1% bovine serum albumin (BSA) in PBS buffer containing 0.1% sodium azide. MAbs (5 μg/ml) in the same blocking buffer were incubated with the plates at 4° C. overnight. […]

B1: SEAM 3: murine anti-N-Pr NmB polysaccharide monoclonal antibody (IgG2b), ATCC Deposit No. HB-12170 (antibody, V domains shown)
VH: EVKLQESGGGLVQPGDSLSLSCAASGFTFTPYYMGWVRQPPGKALEWLGYIRNKANGYTTEYSASVKGRFTISRDNSQSILYLQMNALRAEDSATYYCARYARGTVDSWGQGTTLTVS
VL: DIVMTQSPLTLSVTIGQPASISCKSSQSLLHSNGKTYLNWLLQRPGQSPKLLIYLVSKLESGVPDRFSGSGSGTDFTLKISRVEAEDLGLYYCLQIIHFPHTFGAGTKLELKRA
modifications: mouse
Normal melanocytes
  immunostaining of normal human skin: binds to an antigen in neural like structures of the dermis but is not present in melanocytes
SK-MEL-28 melanoma cells
  binding to cell surface by microscopy: fluorescence is uniform over the cell surface
[1]
  binding to cell surface by microscopy: fluorescence is uniform over the cell surface
[2]
  reactivity with de-N-acyl GD3 / de-N-acyl gangliosides produced by alkali treatment: does not react
